From paper PMC8352909

Columns and labels:
[1] = target: Fc-tagged human IL-2 receptor alpha subunit extracellular domain (hIL-2 Ra-Fc) (human) (UniProt P01589)
[2] = target: Fc-tagged human IL-2 receptor beta subunit extracellular domain (hIL-2 Rb-Fc) (human) (UniProt P14784)
[3] = target: Fc-tagged human IL-2 receptor subunit alpha, extracellular domain (hIL-2 Ra-Fc) (human) (UniProt P01589)

Chain of UniProt P14784 (P14784 27-240): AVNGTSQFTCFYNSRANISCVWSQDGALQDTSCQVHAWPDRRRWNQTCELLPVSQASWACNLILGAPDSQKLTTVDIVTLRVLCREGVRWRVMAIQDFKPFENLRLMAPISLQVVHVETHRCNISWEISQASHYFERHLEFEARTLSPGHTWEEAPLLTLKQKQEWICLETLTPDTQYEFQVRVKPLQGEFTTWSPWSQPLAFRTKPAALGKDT

How did the Supplementary Table 1: αβγ EC50 (nM), DiscoverX PathHunter IL-2 receptor αβγ assay; row K43 [1] turn out when “IL-2 with K43 replaced with AzK, pegylated with 10 kDa mPEG (from UniProt P60568 21-153) (ligand)” was run?
Its Supplementary Table 1: αβγ EC50 (nM), DiscoverX PathHunter IL-2 receptor αβγ assay; row K43 is 0.13 nM.

What about the Supplementary Table 1: βγ EC50 (nM), DiscoverX PathHunter IL-2 receptor βγ assay; row K43 [2] of the same substance?
The Supplementary Table 1: βγ EC50 (nM), DiscoverX PathHunter IL-2 receptor βγ assay; row K43 was 9.84 nM.

For “IL-2 with K35 replaced with AzK, pegylated with 10 kDa mPEG (from UniProt P60568 21-153) (ligand)”, which Supplementary Table 1: βγ EC50 (nM), DiscoverX PathHunter IL-2 receptor βγ assay; row K35 [2] is on record?
Its Supplementary Table 1: βγ EC50 (nM), DiscoverX PathHunter IL-2 receptor βγ assay; row K35 is 6.75 nM.

Which results are given for “IL-2 with V69 replaced with AzK, pegylated with 30 kDa mPEG (from UniProt P60568 21-153) (ligand)”?
Supplementary Table 1: αβγ EC50 (nM), DiscoverX PathHunter IL-2 receptor αβγ assay; row V69* [1]: 0.08 nM; Supplementary Table 1: βγ EC50 (nM), DiscoverX PathHunter IL-2 receptor βγ assay; row V69* [2]: 9.99 nM

For “IL-2 with Y45 replaced with AzK, pegylated with 10 kDa mPEG (from UniProt P60568 21-153) (ligand)”, which Supplementary Table 1: αβγ EC50 (nM), DiscoverX PathHunter IL-2 receptor αβγ assay; row Y45 [1] is on record?
The Supplementary Table 1: αβγ EC50 (nM), DiscoverX PathHunter IL-2 receptor αβγ assay; row Y45 was 0.11 nM.

And the Supplementary Table 1: βγ EC50 (nM), DiscoverX PathHunter IL-2 receptor βγ assay; row Y45 [2]?
The Supplementary Table 1: βγ EC50 (nM), DiscoverX PathHunter IL-2 receptor βγ assay; row Y45 was 9.06 nM.

Which Supplementary Table 1: αβγ EC50 (nM), DiscoverX PathHunter IL-2 receptor αβγ assay; row E62* [1] does the source give for “IL-2 with E62 replaced with AzK, pegylated with 30 kDa mPEG (from UniProt P60568 21-153) (ligand)” here?
The Supplementary Table 1: αβγ EC50 (nM), DiscoverX PathHunter IL-2 receptor αβγ assay; row E62* was 2.84 nM.

And the Supplementary Table 1: βγ EC50 (nM), DiscoverX PathHunter IL-2 receptor βγ assay; row E62* [2]?
Its Supplementary Table 1: βγ EC50 (nM), DiscoverX PathHunter IL-2 receptor βγ assay; row E62* is 7.46 nM.

With “IL-2 with E62 replaced with AzK, pegylated with 10 kDa mPEG (from UniProt P60568 21-153) (ligand)” as the substance, how does the Supplementary Table 1: βγ EC50 (nM), DiscoverX PathHunter IL-2 receptor βγ assay; row E62 [2] read?
The Supplementary Table 1: βγ EC50 (nM), DiscoverX PathHunter IL-2 receptor βγ assay; row E62 was 3 nM.

Which Supplementary Table 1: αβγ EC50 (nM), DiscoverX PathHunter IL-2 receptor αβγ assay; row E68* [1] does the source give for “IL-2 with E68 replaced with AzK, pegylated with 30 kDa mPEG (from UniProt P60568 21-153) (ligand)” here?
Its Supplementary Table 1: αβγ EC50 (nM), DiscoverX PathHunter IL-2 receptor αβγ assay; row E68* is 0.09 nM.

And the Supplementary Table 1: βγ EC50 (nM), DiscoverX PathHunter IL-2 receptor βγ assay; row E68* [2]?
The Supplementary Table 1: βγ EC50 (nM), DiscoverX PathHunter IL-2 receptor βγ assay; row E68* was 7.7 nM.

Which results are given for “IL-2 with R38 replaced with AzK, pegylated with 10 kDa mPEG (from UniProt P60568 21-153) (ligand)”?
Supplementary Table 1: αβγ EC50 (nM), DiscoverX PathHunter IL-2 receptor αβγ assay; row R38 [1]: 0.17 nM; Supplementary Table 1: βγ EC50 (nM), DiscoverX PathHunter IL-2 receptor βγ assay; row R38 [2]: 4.16 nM

What does the source list for “IL-2 with T41 replaced with AzK, pegylated with 10 kDa mPEG (from UniProt P60568 21-153) (ligand)”?
Supplementary Table 1: αβγ EC50 (nM), DiscoverX PathHunter IL-2 receptor αβγ assay; row T41 [1]: 0.05 nM; Supplementary Table 1: βγ EC50 (nM), DiscoverX PathHunter IL-2 receptor βγ assay; row T41 [2]: 6.37 nM

“IL-2 with F42 replaced with AzK, pegylated with 10 kDa mPEG (from UniProt P60568 21-153) (ligand)” was tested. Which Supplementary Table 1: αβγ EC50 (nM), DiscoverX PathHunter IL-2 receptor αβγ assay; row F42 [1] did it give?
Its Supplementary Table 1: αβγ EC50 (nM), DiscoverX PathHunter IL-2 receptor αβγ assay; row F42 is 0.52 nM.

What about the Supplementary Table 1: βγ EC50 (nM), DiscoverX PathHunter IL-2 receptor βγ assay; row F42 [2] of the same substance?
Its Supplementary Table 1: βγ EC50 (nM), DiscoverX PathHunter IL-2 receptor βγ assay; row F42 is 6.09 nM.

With “IL-2 P65 AzK (replacement of proline 65 with AzK, without PEG attachment) (from UniProt P60568 21-153) (ligand)” as the substance, how does the potency (EC50) of pSTAT5 induction in Treg cells of human PBMC, PEG size study [3] read?
Its potency (EC50) of pSTAT5 induction in Treg cells of human PBMC, PEG size study is 5450 pg/mL.
